Assays:
[1] = target: T1, mouse wild-type p53 protein, P02340
T1 chain: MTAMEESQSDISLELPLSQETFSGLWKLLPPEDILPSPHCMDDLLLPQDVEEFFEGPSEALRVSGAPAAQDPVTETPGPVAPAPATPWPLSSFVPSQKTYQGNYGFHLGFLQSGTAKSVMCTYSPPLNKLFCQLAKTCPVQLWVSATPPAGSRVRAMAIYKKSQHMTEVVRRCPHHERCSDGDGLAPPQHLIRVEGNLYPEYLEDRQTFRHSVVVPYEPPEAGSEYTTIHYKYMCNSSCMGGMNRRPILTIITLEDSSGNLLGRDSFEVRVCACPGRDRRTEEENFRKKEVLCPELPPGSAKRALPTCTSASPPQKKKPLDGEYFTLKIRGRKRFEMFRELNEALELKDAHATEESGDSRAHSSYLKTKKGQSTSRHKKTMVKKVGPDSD

[2] = target: human wild-type p53 protein, P04637
[3] = target: glyceraldehyde-3-phosphate dehydrogenase

Sequence of human wild-type p53 protein, P04637 (P04637 whole entry, looked up): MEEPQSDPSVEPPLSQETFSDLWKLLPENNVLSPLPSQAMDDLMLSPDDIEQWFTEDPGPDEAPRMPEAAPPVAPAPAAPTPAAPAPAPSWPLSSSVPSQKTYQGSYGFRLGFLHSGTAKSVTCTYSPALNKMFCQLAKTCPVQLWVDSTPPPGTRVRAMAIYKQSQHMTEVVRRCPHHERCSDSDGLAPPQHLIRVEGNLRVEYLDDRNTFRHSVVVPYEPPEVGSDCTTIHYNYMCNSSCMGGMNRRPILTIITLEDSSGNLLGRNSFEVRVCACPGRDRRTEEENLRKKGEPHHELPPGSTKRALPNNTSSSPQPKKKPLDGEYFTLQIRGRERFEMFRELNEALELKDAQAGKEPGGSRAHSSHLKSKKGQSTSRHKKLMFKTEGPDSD

B1: bovine m-calpain (Sigma) (protein)
chain 1: AGIAAKLAKDREAAEGLGSHERAVKYLNQDYAALRDECLEAGALFQDPSFPALPSSLGFKELGPYSSKTRGIEWKRPTEICDNPQFITGGATRTDICQGALGDCWLLAAIASLTLNEEILARVVPLDQSFQENYAGIFHFQFWQYGEWVEVVVDDRLPTKDGELLFVHSAEGSEFWSALLEKAYAKINGCYEALSGGATTEGFEDFTGGIAEWYELRKAPPNLFRIIQKALQKGSLLGCSIDITSAADSEAITFQKLVKGHAYSVTGAEEVESRGSLQKLIRIRNPWGEVEWTGQWNDNCPNWNTVDPEVRETLTRQHEDGEFWMSFNDFLRHYSRLEICNLTPDTLTSDSYKKWKLTKMDGNWRRGSTAGGCRNYPNTFWMNPQYLIKLEEEDEDQEDGESGCTFLVGLIQKHRRRQRKMGEDMHTIGFGIYEVPEELTGQTNIHLSKKFFLTTRARERSDTFINLREVLNRFKLPPGEYIVVPSTFEPNKDGDFCIRVFSEKKADYQVVDDEIEANIDEIDISEDDIDDGFRRLFAQLAGEDAEISAFELQTILRRVLAKRQDIKSDGFSIETCKIMVDMLDSDGSGKLGLKEFYILWTKIQKYQKIYREIDVDRSGTMNSYEMRKALEEAGFKMPCQLHQVIVARFADDDLIIDFDNFVRCLIRLETLFRIFKQLDPENTGMIQLDLISWLSFSVL
chain 2: MFLVNSFLKGGGGGGGGGGLGGGLGNVLGGLISGAGGGGGGGGGGGGGGGGTAMRILGGVISAISEAAAQYNPEPVPPRTHYSNIEANESEEVRQFRRLFAQLAGDDMEVSATELMNILNKVVTRHPDLKTDGFGIDTCRSMVAVMDSDTTGKLGFEEFKYLWNNIKKWQAVYKQFDVDRSGTIGSSELPGAFEAAGFRLNEHLYNMIIRRYSDEGGNMDFDNFISCLVRLDAMFRAFKSLDKDGTGQIQVNIQEWLQLTMYS
- degradation of the protein in reticulocyte lysate with calcium and m-calpain (dihydrofolate reductase): The degradation resistance of other proteins such as dihydrofolate reductase or glyceraldehyde-3-phosphate dehydrogenase under the same experimental conditions
- degradation of the in vitro translated protein in reticulocyte lysate with calcium (electrophoresis) [1]: led to the rapid disappearance of the neosynthesized proteins and the appearance of proteolytic fragments
- degradation of the in vitro translated protein in reticulocyte lysate with calcium (electrophoresis) [2]: led to the rapid disappearance of the neosynthesized proteins and the appearance of proteolytic fragments
- degradation of the protein in reticulocyte lysate with calcium and m-calpain [3]: The degradation resistance of other proteins such as dihydrofolate reductase or glyceraldehyde-3-phosphate dehydrogenase under the same experimental conditions

Reference: US20030060435
